The values that follow come from patent US20190092872A1 (Hoffmann-La Roche, published 2019).

For experiment [1], the target named is T1, FcγRI (UniProt P12314 16-288, limits assumed).
T1 construct: Captured from a 100 nM solution on immobilized anti-His antibody; also called FcγRI receptor; FcγRIa
The experiment is described as follows: SPR steady state affinity; reference is the IgG1 Wt affinity for FcγRI.
Protocol: (§1) Biacore T100 system (GE Healthcare) with high immobilized anti-His capturing antibody (GE Healthcare). Immobilization of the anti-His capturing antibody was performed on a CMS chip using the standard amine coupling kit (GE Healthcare) at pH 4.5 10 mM sodium acetate and 10 μg/ml anti-His solution. The immobilization level of anti-His reached more than 10.000 RU. FcγRI was applied in a 100 nM solution, in the running buffer HBS-P+ and captured with a pulse of 60 sec at a flow rate of 30 μl per min. […] The dissociation phase was monitored for 180 sec. The surface was regenerated by a 60 sec washing step with a 10 mM Glycine pH 1.5 at a flow rate of 30 μl per min. The stabilization period took 60 sec. The Biacore T100 evaluation software was used for data analysis.
(§2) For the steady state affinity concentration determination the response values from the end of association were used to plot the response against the concentration. The Biacore T100 evaluation software was used to calculate the affinity of samples for immobilized FcγRI receptor from the plot.

Experiment [2] concerns the target T1, FcγRI. In words: SPR steady state affinity fit, FcγRI captured on anti-His antibody; beside it offset (RU) 26.88 and Chi² (RU²) 7.76.
Protocol: as §1, §2
Experiment [3] addresses T2, FcγRIIIA (UniProt P08637 17-208, limits assumed).
T2 construct: Captured from a 200 nM solution on immobilized anti-His antibody; also called CD16
The experiment is described as follows: SPR (Biacore T100), FcγRIIIA with His tag captured on immobilised anti-His antibody, antibody injected (Example 9). (In general: Surface plasmon resonance follows binding to a sensor surface in real time, without labels.)
Protocol: The SPR interaction analysis of captured FcγRIIIA and IgG1 Fc variants was performed on a Biacore T100 system (GE Healthcare) with high immobilized anti-His capturing antibody (GE Healthcare). Immobilization of the anti-His capturing antibody was performed on a CMS chip using the standard amine coupling kit (GE Healthcare) at pH 4.5 10 mM sodium acetate and 10 μg/ml anti-His solution. The immobilization level of anti-His reached more than 10.000 RU. FcγRIIIA was applied in a 200 nM solution, in the running buffer HBS-P+ and captured with a pulse of 60 sec at a flow rate of 30 μl per min. […] The dissociation phase was monitored for 180 sec. The surface was regenerated by a 60 sec washing step with a 10 mM Glycine pH 1.5 at a flow rate of 30 μl per min. The stabilization period took 60 sec. The Biacore T100 evaluation software was used for data analysis.

In experiment [4] the target is T1, FcγRI. In words: SPR steady state affinity (Biacore T100), FcγRI captured via anti-His antibody, antibody 1000-62.5 nM.
Protocol: as §1, §2

As a reminder, the Kd is the free concentration of one partner at which half of the binding sites on the other are occupied at equilibrium, for simple one-to-one binding. The low end stands for higher affinity, the high end for lower affinity.

T1 sequence (P12314 16-288 limits assumed): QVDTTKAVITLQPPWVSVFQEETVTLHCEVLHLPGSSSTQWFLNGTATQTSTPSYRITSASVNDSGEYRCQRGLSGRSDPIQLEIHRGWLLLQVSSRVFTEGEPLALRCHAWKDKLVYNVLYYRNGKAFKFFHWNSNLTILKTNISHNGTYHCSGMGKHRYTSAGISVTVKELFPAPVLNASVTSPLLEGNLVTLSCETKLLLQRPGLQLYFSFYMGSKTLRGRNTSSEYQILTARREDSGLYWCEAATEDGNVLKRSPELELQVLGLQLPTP
T2 sequence (P08637 17-208 limits assumed): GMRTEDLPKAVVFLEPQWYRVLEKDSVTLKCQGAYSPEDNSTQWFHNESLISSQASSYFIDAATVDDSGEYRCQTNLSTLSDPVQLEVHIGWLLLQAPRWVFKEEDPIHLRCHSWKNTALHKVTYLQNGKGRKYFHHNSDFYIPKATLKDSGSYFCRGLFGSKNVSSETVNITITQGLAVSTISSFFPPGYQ

B1: obinutuzumab N297D (antibody)
heavy: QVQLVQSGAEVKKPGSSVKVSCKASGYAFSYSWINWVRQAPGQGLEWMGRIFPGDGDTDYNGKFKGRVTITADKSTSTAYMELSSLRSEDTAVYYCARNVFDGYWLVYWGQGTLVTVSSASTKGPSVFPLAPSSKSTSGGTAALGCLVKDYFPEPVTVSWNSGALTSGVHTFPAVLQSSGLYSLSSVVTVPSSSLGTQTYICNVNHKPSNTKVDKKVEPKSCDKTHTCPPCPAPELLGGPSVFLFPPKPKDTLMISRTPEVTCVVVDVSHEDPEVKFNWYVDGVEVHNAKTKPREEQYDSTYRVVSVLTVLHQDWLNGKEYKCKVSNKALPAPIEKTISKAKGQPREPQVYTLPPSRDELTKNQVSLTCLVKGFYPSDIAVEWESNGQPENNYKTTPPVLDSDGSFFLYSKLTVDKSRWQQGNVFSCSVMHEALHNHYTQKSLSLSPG
VL: DIVMTQTPLSLPVTPGEPASISCRSSKSLLHSNGITYLYWYLQKPGQSPQLLIYQMSNLVSGVPDRFSGSGSGTDFTLKISRVEAEDVGVYYCAQNLELPYTFGGGTKVEIK
modifications: N297D removes the Fc N-glycosylation site, so the antibody is aglycosylated ('aglyco').
notes: IgG1 expressed in HEK-EBNA or HEK293 and purified by protein A and size exclusion chromatography; also called GA101 N297D; GA101 aglyco (N297D)
On to B1, for which the “fold below the IgG1 Wt affinity” value in experiment [1] was ~50 fold. Also, the Kd in experiment [2] and in experiment [4] was 234 nM each time. Besides, in experiment [3], the binding result was “no binding (tested: 1000 nM)”.
